Test results: publication PMC5828407 (Veterinary Research, 2018)
Where no end group is shown, it is not given here. The star is where a group is joined. FITC = O=C1OC2(c3ccc(O)cc3Oc3cc(O)ccc32)c2ccc(NC(=S)*)cc21; Ahx = NCCCCCC(=O)O

B1: APN∆1 (401–963 AA) (domain or fragment)
chain: DLWLNEGFASYVEYLGADHAEPTWNLKDLIVPGDVYRVMAVDALASSHPLTTPAEEVNTPAQISEMFDSISYSKGASVIRMLSNFLTEDLFKEGLASYLHAFAYQNTTYLDLWEHLQKAVDAQTSIRLPDTVRAIMDRWTLQMGFPVITVDTKTGNISQKHFLLDSESNVTRSSAFDYLWIVPISSIKNGVMQDHYWLRDVSQAQNDLFKTASDDWVLLNVNVTGYFQVNYDEDNWRMIQHQLQTNLSVIPVINRAQVIYDSFNLATAHMVPVTLALDNTLFLNGEKEYMPWQAALSSLSYFSLMFDRSEVYGPMKKYLRKQVEPLFQHFETLTKNWTERPENLMDQYSEINAISTACSNGLPQCENLAKTLFDQWMSDPENNPIHPNLRSTIYCNAIAQGGQDQWDFAWGQLQQAQLVNEADKLRSALACSNEVWLLNRYLGYTLNPDLIRKQDATSTINSIASNVIGQPLAWDFVQSNWKKLFQDYGGGSFSFSNLIQGVTRRFSSEFELQQLEQFKKNNMDVGFGSGTRALEQALEKTKANIKWVKENKEVVLNWFIEHS
B2: APN∆5 (332–963 AA) (domain or fragment)
chain: PLPKSDQIALPDFNAGAMENWGLVTYRENALLFDPQSSSISNKERVVTVIAHELAHQWFGNLVTLAWWNDLWLNEGFASYVEYLGADHAEPTWNLKDLIVPGDVYRVMAVDALASSHPLTTPAEEVNTPAQISEMFDSISYSKGASVIRMLSNFLTEDLFKEGLASYLHAFAYQNTTYLDLWEHLQKAVDAQTSIRLPDTVRAIMDRWTLQMGFPVITVDTKTGNISQKHFLLDSESNVTRSSAFDYLWIVPISSIKNGVMQDHYWLRDVSQAQNDLFKTASDDWVLLNVNVTGYFQVNYDEDNWRMIQHQLQTNLSVIPVINRAQVIYDSFNLATAHMVPVTLALDNTLFLNGEKEYMPWQAALSSLSYFSLMFDRSEVYGPMKKYLRKQVEPLFQHFETLTKNWTERPENLMDQYSEINAISTACSNGLPQCENLAKTLFDQWMSDPENNPIHPNLRSTIYCNAIAQGGQDQWDFAWGQLQQAQLVNEADKLRSALACSNEVWLLNRYLGYTLNPDLIRKQDATSTINSIASNVIGQPLAWDFVQSNWKKLFQDYGGGSFSFSNLIQGVTRRFSSEFELQQLEQFKKNNMDVGFGSGTRALEQALEKTKANIKWVKENKEVVLNWFIEHS

How the values were obtained:
Details in all cases: both partners purified
[1] = target: T1, porcine aminopeptidase N (APN), His-tagged whole protein (porcine, UniProt P15145 1-963); experiment: ELISA; APN protein coated on plates, incubated with FaeG peptides, fusion FaeG proteins or F4 fimbriae; absorbance at 450 nm
T1 sequence: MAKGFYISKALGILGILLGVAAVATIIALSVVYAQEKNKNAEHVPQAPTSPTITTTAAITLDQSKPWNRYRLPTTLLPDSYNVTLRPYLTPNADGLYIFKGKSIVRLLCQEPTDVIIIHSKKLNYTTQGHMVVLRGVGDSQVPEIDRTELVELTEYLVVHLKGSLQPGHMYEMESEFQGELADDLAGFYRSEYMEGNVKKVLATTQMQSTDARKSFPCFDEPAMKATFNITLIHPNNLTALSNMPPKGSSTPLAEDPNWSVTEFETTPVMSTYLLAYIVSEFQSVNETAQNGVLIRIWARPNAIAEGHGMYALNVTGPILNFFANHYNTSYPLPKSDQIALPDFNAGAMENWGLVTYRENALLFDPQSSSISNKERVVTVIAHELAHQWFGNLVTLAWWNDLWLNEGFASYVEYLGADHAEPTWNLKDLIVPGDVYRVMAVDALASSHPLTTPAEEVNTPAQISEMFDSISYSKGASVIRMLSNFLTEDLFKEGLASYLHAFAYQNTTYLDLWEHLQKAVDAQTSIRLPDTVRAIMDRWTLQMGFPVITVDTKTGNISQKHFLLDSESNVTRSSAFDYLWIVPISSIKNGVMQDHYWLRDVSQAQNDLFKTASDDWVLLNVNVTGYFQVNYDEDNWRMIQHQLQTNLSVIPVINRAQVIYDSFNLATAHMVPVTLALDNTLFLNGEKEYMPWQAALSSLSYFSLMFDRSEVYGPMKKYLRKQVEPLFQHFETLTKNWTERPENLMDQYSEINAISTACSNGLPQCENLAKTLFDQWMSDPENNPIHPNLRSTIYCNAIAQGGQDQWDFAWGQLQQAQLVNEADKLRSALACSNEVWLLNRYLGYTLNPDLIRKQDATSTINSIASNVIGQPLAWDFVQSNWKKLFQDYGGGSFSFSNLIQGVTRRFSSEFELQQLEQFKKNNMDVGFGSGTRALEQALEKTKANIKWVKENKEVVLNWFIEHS

[2] = target: T1, porcine aminopeptidase N (APN), …; experiment: peptide or protein array; FaeG membrane: 205 spots of 13-mers offset by 3 on cellulose membrane, incubated with 1 mg/mL purified soluble APN, blotted with polyclonal antibodies against APN; intensity > 30% of the strongest spot positive
[3] = target: GST-tagged FaeG fusion protein of F4ac (Escherichia coli, UniProt P14190 22-283); experiment: ELISA; indirect ELISA: APN and its five truncated proteins coated at 100 μg/mL in carbonate-bicarbonate buffer pH 9.6, incubated with 100 μg/mL FaeG fusion protein, detected with anti-F4 monoclonal antibody

| Binder | binding result [2] | also measured |
| --- | --- | --- |
| {FITC-Ahx}-NASYAGVFGKGGV [peptide F4ab 148–160] |  | binding result [1]: binds |
| ASYAGALGRGGVT [FaeG membrane spot 172 (149–161 AA), F4ad] | binds |  |
| NASYAGVFGKGGV [FaeG membrane spot 50 (148–160 AA), F4ab] | binds |  |
| LSSIFYGGLPRGS [FaeG membrane spot 125 (176–188 AA), F4ac] | binds |  |
| HAIFYGGLPTNVK [FaeG membrane spot 181 (176–188 AA), F4ad] | binds |  |
| B1 |  | binding result [3]: binds |
| B2 |  | binding result [3]: binds |
| {FITC-Ahx}-TKLFGSLSRNDILGQIQRV [peptide F4ac 200–218] |  | binding result [1]: binds |
| ARTELFGSLSKNDILGQIQ [FaeG membrane spots 189–191 (200–218 AA), F4ad] | binds |  |
| LRAIFYGGLTTTV [FaeG membrane spot 59 (175–187 AA), F4ab] | binds |  |
| NASYAGVLGRGGV [FaeG membrane spot 116 (149–161 AA), F4ac] | binds |  |
| TKLFGSLSRNDILGQIQRV [FaeG membrane spots 133–135 (200–218 AA), F4ac] | binds |  |
| {FITC-Ahx}-ARTELFGSLSKNDILGQIQ [peptide F4ad 200–218] |  | binding result [1]: binds |
